Data: US20050288217A1

Target: αVβ3 integrin (UniProt P06756)
Assay: binding to αVβ3, against the unsubstituted sequence

αVβ3 integrin, sequence (P06756 31-1048, chain 1 of 2): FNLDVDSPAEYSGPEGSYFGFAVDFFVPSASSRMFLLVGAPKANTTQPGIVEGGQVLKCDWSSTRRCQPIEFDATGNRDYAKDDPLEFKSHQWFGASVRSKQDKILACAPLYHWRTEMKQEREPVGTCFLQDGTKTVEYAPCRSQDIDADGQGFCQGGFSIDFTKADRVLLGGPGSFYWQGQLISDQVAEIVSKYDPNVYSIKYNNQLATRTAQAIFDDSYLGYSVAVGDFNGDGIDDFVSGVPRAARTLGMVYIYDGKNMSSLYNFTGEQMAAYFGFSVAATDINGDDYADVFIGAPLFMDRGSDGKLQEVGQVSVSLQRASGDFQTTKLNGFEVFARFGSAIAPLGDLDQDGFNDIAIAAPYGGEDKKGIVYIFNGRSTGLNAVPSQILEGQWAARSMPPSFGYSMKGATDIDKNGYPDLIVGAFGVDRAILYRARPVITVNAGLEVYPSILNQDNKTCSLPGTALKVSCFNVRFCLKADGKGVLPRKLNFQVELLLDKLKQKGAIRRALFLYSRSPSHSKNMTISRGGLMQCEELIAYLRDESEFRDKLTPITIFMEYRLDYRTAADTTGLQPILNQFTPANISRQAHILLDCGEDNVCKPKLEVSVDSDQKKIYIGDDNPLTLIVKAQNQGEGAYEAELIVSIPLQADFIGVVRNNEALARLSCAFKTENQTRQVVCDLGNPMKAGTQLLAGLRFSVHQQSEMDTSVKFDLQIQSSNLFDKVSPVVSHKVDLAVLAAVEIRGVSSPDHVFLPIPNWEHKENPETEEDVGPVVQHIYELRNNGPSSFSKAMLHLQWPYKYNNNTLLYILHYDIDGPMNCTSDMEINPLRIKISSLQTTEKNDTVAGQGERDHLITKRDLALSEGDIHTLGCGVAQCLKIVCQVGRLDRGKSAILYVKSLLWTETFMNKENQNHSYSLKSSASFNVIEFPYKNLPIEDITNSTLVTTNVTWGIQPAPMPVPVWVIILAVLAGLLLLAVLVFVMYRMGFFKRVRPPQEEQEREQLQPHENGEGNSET
αVβ3 integrin, sequence (P05106 27-788, chain 2 of 2, further chain): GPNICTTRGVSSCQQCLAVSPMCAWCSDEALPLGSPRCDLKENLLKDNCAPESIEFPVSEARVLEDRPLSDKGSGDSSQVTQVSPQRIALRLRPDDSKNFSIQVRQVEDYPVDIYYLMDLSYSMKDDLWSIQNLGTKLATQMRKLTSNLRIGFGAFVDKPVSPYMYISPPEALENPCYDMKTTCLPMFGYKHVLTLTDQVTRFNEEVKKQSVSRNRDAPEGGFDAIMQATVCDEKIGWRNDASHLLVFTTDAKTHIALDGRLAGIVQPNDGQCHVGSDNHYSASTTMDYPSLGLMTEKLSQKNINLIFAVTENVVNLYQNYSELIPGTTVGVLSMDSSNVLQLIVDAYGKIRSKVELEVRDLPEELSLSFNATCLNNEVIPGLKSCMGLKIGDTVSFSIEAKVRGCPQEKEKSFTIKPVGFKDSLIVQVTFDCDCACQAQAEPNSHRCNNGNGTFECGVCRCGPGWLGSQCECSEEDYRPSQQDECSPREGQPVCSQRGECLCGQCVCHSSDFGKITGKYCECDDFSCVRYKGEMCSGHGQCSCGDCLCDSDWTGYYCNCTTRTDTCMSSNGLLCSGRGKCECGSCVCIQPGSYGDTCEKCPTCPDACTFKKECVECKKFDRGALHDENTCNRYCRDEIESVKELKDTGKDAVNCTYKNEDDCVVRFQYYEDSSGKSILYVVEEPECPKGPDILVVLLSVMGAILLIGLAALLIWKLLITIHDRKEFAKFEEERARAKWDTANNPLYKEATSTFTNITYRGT

“vitronectin sequence with the single arginine at position 374 changed to alanine (peptide)” showed a decrease in binding of 70%.
